The data set is described as follows: self-splicing fitness, log relative to wild type (ln ratio); higher = more splicing; Tetrahymena group I intron in knt gene, E. coli kanamycin selection, DiMSum; sequences stand for … in CUCUCU…GGAGGGAAAAGUUAUCAGGCAUGCACCUGGUAGCUAGUCUUUAAACCAAUAGAUUGCAUCGGUUUAAAAGGCAAGACCGUCAAAUUGCGGGAAAGGGGUCAACAGCCGUUCAGUACCAAGUCUCAGGGGAAACUUUGAGAUGGCCUUGCAAAGGGUAUGGUAAUAAGCUGACGGACAUGGUCCUAACCACGCAGCCAAGUCCUAAGUCAACAGAUCUUCUGUUGAUAUGGAUGCAGUUCACAGACUAAAUGUCGGUCGGGGAAGAUGUAUUCUUCUCAUAAGAUAUAGUCGGACCUCUCCUUAAUGGGAGCUAGCGGAUGAAGUGAUGCAACACUGGAGCCGCUGGGAACUAAUUUGUAUGCGAAAGUAUAUUGAUUAGUUUUGGAGUACUCGUGGUCG
Summed up:
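The eight P1ex-region nucleotides of an intron in the knt kanamycin-resistance gene on pET-22b(+) were all randomised and the library put into E. coli BL21(DE3). Six replicate transformations were grown overnight at 37°C or 30°C on LB agar with or without 25 μg/mL kanamycin, together with 100 μg/mL carbenicillin, 50 μM IPTG and 0.2% rhamnose. Colonies were pooled and amplicon-sequenced on an Illumina HiSeq 2500. Fitness from DiMSum is the error-weighted combination of wild-type-normalised replicate fold changes, kanamycin over none.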

± gives the uncertainty stated by the source.

Consider UAGUAGCAAUAUUACGGCUU, for which the “self-splicing fitness (ln)” value is, setting by setting: (30 °C) -0.242 ± 0.11; (37 °C) 0.187 ± 0.13.
Take UAGUAGCAAUAUUACGGGCA: the “self-splicing fitness (ln)” value runs as follows: (30 °C) -1.17 ± 0.16; (37 °C) -0.536 ± 0.15.
In the same order, the values of UAGUAGCAAUAUUACGUAGU are -4.39 ± 0.42 and -0.839 ± 0.21.
For the sequence UAGUAGCAAUAUUACGUAUA, the “self-splicing fitness (ln)” value runs as follows: (30 °C) -1.69 ± 0.25; (37 °C) -1.14 ± 0.27.
In the same order, the values of UAGUAGCAAUAUUACGUCUC are -3.51 ± 0.45 and -1.59 ± 0.2.
In the same order, the values of UAGUAGCAAUAUUACGUGUG are -2.02 ± 0.11 and -1.23 ± 0.13.
On to UAUAAGCAAUAUUACGAAAC, for which the “self-splicing fitness (ln)” value (37 °C) is -0.0191 ± 0.39.
For the sequence UAUAAGCAAUAUUACGAAUA, the “self-splicing fitness (ln)” value is, setting by setting: (30 °C) -1.55 ± 0.24; (37 °C) -0.822 ± 0.19.
In the same order, the values of UAUAAGCAAUAUUACGACGG are -0.907 ± 0.12 and 0.474 ± 0.18.
In the same order, the values of UAUAAGCAAUAUUACGAGAG are -3.52 ± 0.38 and -2.52 ± 0.27.
In the same order, the values of UAUAAGCAAUAUUACGAGCA are -0.842 ± 0.23 and -0.234 ± 0.18.
Regarding UAUAAGCAAUAUUACGAUAA, the “self-splicing fitness (ln)” value by setting is: (30 °C) -1.17 ± 0.12; (37 °C) -0.947 ± 0.12.
In the same order, the values of UAUAAGCAAUAUUACGAUGA are -0.333 ± 0.1 and 0.344 ± 0.13.
In the same order, the values of UAUAAGCAAUAUUACGCAGA are -0.745 ± 0.45 and -1.25 ± 0.18.
In the same order, the values of UAUAAGCAAUAUUACGCCAA are -1.14 ± 0.29 and -0.0916 ± 0.42.
UAUAAGCAAUAUUACGCCGG: the “self-splicing fitness (ln)” value was -0.545 ± 0.16 (30 °C) and -0.0733 ± 0.18 (37 °C).
UAUAAGCAAUAUUACGCCUG: the “self-splicing fitness (ln)” value is -0.378 ± 0.13 (30 °C) and 0.297 ± 0.16 (37 °C).
In the same order, the values of UAUAAGCAAUAUUACGCGCG are -0.131 ± 0.11 and -0.655 ± 0.14.
In the same order, the values of UAUAAGCAAUAUUACGGAAA are -2.19 ± 0.37 and -1.48 ± 0.33.
In the case of UAUAAGCAAUAUUACGGAAU, the “self-splicing fitness (ln)” value reads like this: (30 °C) -2.37 ± 0.22; (37 °C) -0.6 ± 0.16.
In the same order, the values of UAUAAGCAAUAUUACGGCAA are -0.395 ± 0.17 and -0.0869 ± 0.2.
In the same order, the values of UAUAAGCAAUAUUACGGGUA are -0.177 ± 0.1 and 0.401 ± 0.12.
Take UAUAAGCAAUAUUACGGUUG: the “self-splicing fitness (ln)” value reads like this: (30 °C) -1.61 ± 0.11; (37 °C) -0.603 ± 0.13.
In the same order, the values of UAUAAGCAAUAUUACGUACA are -0.793 ± 0.12 and -0.427 ± 0.14.
In the same order, the values of UAUAAGCAAUAUUACGUCAC are -2.89 ± 0.33 and -1.38 ± 0.32.
Turning to UAUAAGCAAUAUUACGUCCA, the “self-splicing fitness (ln)” value is -1.23 ± 0.12 (30 °C) and 0.113 ± 0.18 (37 °C).
In the case of UAUAAGCAAUAUUACGUCUC, the “self-splicing fitness (ln)” value (37 °C) was -2.22 ± 0.35.
In the case of UAUAAGCAAUAUUACGUGAA, the “self-splicing fitness (ln)” value is, setting by setting: (30 °C) 0.0802 ± 0.12; (37 °C) -0.933 ± 0.15.
In the same order, the values of UAUAAGCAAUAUUACGUGCC are -3.05 ± 0.22 and -1.44 ± 0.17.
In the same order, the values of UAUAAGCAAUAUUACGUGCU are -2.56 ± 0.16 and -1.32 ± 0.15.
In the same order, the values of UAUAAGCAAUAUUACGUGGA are -2.08 ± 0.19 and -1.71 ± 0.19.
With UAUCAGCAAUAUUACGAAAU, the “self-splicing fitness (ln)” value is -2.9 ± 0.16 (30 °C) and -0.792 ± 0.15 (37 °C).
In the same order, the values of UAUCAGCAAUAUUACGAACG are 0.353 ± 0.085 and 0.157 ± 0.094.
In the same order, the values of UAUCAGCAAUAUUACGAAGA are -0.93 ± 0.12 and -0.91 ± 0.13.
As for UAUCAGCAAUAUUACGAGUC, the “self-splicing fitness (ln)” value (37 °C) was -1.81 ± 0.48.
Consider UAUCAGCAAUAUUACGAUUU, for which the “self-splicing fitness (ln)” value worked out at 0.142 ± 0.055 (30 °C) and 0.207 ± 0.07 (37 °C).
In the same order, the values of UAUCAGCAAUAUUACGCACU are -0.0365 ± 0.087 and 0.104 ± 0.094.
As to UAUCAGCAAUAUUACGCUGA, for the setting “37 °C”, the “self-splicing fitness (ln)” value is -2.31 ± 0.37.
For the sequence UAUCAGCAAUAUUACGCUGC, the “self-splicing fitness (ln)” value is -2.59 ± 0.35 (30 °C) and -0.822 ± 0.24 (37 °C).
As to UAUCAGCAAUAUUACGGGAC, the “self-splicing fitness (ln)” value runs as follows: (30 °C) -3.15 ± 0.22; (37 °C) -2.26 ± 0.25.
As to UAUCAGCAAUAUUACGGGCC, the “self-splicing fitness (ln)” value (37 °C) was -2.07 ± 0.3.
For the sequence UAUCAGCAAUAUUACGGUAC, the “self-splicing fitness (ln)” value (30 °C) was -3.28 ± 0.26 and the “self-splicing fitness (ln)” value (37 °C) was -2.54 ± 0.3.
In the same order, the values of UAUCAGCAAUAUUACGGUGA are -0.121 ± 0.054 and -0.19 ± 0.065.
In the same order, the values of UAUCAGCAAUAUUACGGUUG are -0.952 ± 0.068 and -0.113 ± 0.1.
In the same order, the values of UAUCAGCAAUAUUACGUAAG are -2.16 ± 0.16 and -1.09 ± 0.17.
Regarding UAUCAGCAAUAUUACGUAGU, the “self-splicing fitness (ln)” value (30 °C) is -1.87 ± 0.086 and the “self-splicing fitness (ln)” value (37 °C) was -1.19 ± 0.08.
In the same order, the values of UAUCAGCAAUAUUACGUCAA are -0.73 ± 0.092 and -0.445 ± 0.11.
In the same order, the values of UAUCAGCAAUAUUACGUUAU are -3.07 ± 0.11 and -1.89 ± 0.1.
Turning to UAUGAGCAAUAUUACGCAGU, the “self-splicing fitness (ln)” value (30 °C) was -1.98 ± 0.24 and the “self-splicing fitness (ln)” value (37 °C) is -0.419 ± 0.21.
In the same order, the values of UAUGAGCAAUAUUACGCGAG are -2.87 ± 0.17 and -0.834 ± 0.08.
UAUGAGCAAUAUUACGCGAU: the “self-splicing fitness (ln)” value (37 °C) is -2.93 ± 0.37.
For UAUGAGCAAUAUUACGCGUU, the “self-splicing fitness (ln)” value was -4.08 ± 0.36 (30 °C) and -1.79 ± 0.24 (37 °C).
In the same order, the values of UAUGAGCAAUAUUACGCUCA are -2.45 ± 0.31 and -2.73 ± 0.27.
Take UAUGAGCAAUAUUACGCUGU: the “self-splicing fitness (ln)” value is -3.79 ± 0.25 (30 °C) and -3.21 ± 0.24 (37 °C).
In the same order, the values of UAUGAGCAAUAUUACGGCGG are -3.22 ± 0.23 and -1.72 ± 0.26.
In the case of UAUGAGCAAUAUUACGGCUC, the “self-splicing fitness (ln)” value (37 °C) is -0.823 ± 0.41.
In the case of UAUGAGCAAUAUUACGGUGA, the “self-splicing fitness (ln)” value is, setting by setting: (30 °C) -2.21 ± 0.16; (37 °C) -3.36 ± 0.27.
In the same order, the values of UAUGAGCAAUAUUACGGUGC are -3.01 ± 0.41 and -0.888 ± 0.3.
For the sequence UAUGAGCAAUAUUACGUACU, the “self-splicing fitness (ln)” value by setting is: (30 °C) -4.19 ± 0.42; (37 °C) -1.09 ± 0.41.
In the same order, the values of UAUGAGCAAUAUUACGUAGC are -3.71 ± 0.3 and -2.5 ± 0.29.
In the same order, the values of UAUGAGCAAUAUUACGUAUA are -2 ± 0.4 and -1.02 ± 0.28.
In the same order, the values of UAUGAGCAAUAUUACGUGAG are -2.91 ± 0.14 and -2.74 ± 0.23.
On to UAUGAGCAAUAUUACGUGCG, for which the “self-splicing fitness (ln)” value (30 °C) is -1.06 ± 0.12 and the “self-splicing fitness (ln)” value (37 °C) is -1.41 ± 0.16.
In the same order, the values of UAUGAGCAAUAUUACGUUAC are -3.37 ± 0.36 and -2.48 ± 0.23.
In the same order, the values of UAUGAGCAAUAUUACGUUUG are -3.93 ± 0.26 and -1.8 ± 0.15.
Regarding UAUUAGCAAUAUUACGACGC, the “self-splicing fitness (ln)” value is -2.92 ± 0.48 (30 °C) and -2.18 ± 0.38 (37 °C).
Regarding UAUUAGCAAUAUUACGAUUG, the “self-splicing fitness (ln)” value reads like this: (30 °C) -1.08 ± 0.089; (37 °C) -0.0341 ± 0.14.
In the same order, the values of UAUUAGCAAUAUUACGCACG are -0.859 ± 0.16 and 0.0642 ± 0.17.
Turning to UAUUAGCAAUAUUACGCCGU, the “self-splicing fitness (ln)” value (37 °C) was -1.63 ± 0.33.
Take UAUUAGCAAUAUUACGCGGG: the “self-splicing fitness (ln)” value is, setting by setting: (30 °C) -2.9 ± 0.18; (37 °C) -1.59 ± 0.23.
Regarding UAUUAGCAAUAUUACGCUGG, the “self-splicing fitness (ln)” value (30 °C) is -2 ± 0.14 and the “self-splicing fitness (ln)” value (37 °C) is -0.655 ± 0.14.
In the same order, the values of UAUUAGCAAUAUUACGGAUU are -1.74 ± 0.12 and -0.699 ± 0.11.
Regarding UAUUAGCAAUAUUACGGCCC, the “self-splicing fitness (ln)” value (30 °C) was -1.78 ± 0.5.
Regarding UAUUAGCAAUAUUACGGGAG, the “self-splicing fitness (ln)” value was -3.18 ± 0.16 (30 °C) and -2.16 ± 0.12 (37 °C).
In the same order, the values of UAUUAGCAAUAUUACGGGUC are -2.14 ± 0.37 and -2.29 ± 0.35.
UAUUAGCAAUAUUACGGUAA: the “self-splicing fitness (ln)” value was -2.24 ± 0.26 (30 °C) and -1.54 ± 0.23 (37 °C).
In the same order, the values of UAUUAGCAAUAUUACGGUUA are 0.108 ± 0.097 and -0.239 ± 0.11.
In the same order, the values of UAUUAGCAAUAUUACGUCCC are -2.83 ± 0.42 and -0.713 ± 0.46.
